In patent publication US20230018405A1:
Ends that are not written are not given here. EGFP = GFP fused N-terminally (GFP-linker-3.2iPA), EGFP per filing

Legend:
rat Cav3.2 (rat) = rat Cav3.2 (rat) (UniProt Q9EQ60); assay: cell-based or functional assay
[1] = target: human wide-type Cav3.2 (human) (UniProt O95180); assay: cell-based or functional assay
Sequence of UniProt O95180 (O95180 whole entry): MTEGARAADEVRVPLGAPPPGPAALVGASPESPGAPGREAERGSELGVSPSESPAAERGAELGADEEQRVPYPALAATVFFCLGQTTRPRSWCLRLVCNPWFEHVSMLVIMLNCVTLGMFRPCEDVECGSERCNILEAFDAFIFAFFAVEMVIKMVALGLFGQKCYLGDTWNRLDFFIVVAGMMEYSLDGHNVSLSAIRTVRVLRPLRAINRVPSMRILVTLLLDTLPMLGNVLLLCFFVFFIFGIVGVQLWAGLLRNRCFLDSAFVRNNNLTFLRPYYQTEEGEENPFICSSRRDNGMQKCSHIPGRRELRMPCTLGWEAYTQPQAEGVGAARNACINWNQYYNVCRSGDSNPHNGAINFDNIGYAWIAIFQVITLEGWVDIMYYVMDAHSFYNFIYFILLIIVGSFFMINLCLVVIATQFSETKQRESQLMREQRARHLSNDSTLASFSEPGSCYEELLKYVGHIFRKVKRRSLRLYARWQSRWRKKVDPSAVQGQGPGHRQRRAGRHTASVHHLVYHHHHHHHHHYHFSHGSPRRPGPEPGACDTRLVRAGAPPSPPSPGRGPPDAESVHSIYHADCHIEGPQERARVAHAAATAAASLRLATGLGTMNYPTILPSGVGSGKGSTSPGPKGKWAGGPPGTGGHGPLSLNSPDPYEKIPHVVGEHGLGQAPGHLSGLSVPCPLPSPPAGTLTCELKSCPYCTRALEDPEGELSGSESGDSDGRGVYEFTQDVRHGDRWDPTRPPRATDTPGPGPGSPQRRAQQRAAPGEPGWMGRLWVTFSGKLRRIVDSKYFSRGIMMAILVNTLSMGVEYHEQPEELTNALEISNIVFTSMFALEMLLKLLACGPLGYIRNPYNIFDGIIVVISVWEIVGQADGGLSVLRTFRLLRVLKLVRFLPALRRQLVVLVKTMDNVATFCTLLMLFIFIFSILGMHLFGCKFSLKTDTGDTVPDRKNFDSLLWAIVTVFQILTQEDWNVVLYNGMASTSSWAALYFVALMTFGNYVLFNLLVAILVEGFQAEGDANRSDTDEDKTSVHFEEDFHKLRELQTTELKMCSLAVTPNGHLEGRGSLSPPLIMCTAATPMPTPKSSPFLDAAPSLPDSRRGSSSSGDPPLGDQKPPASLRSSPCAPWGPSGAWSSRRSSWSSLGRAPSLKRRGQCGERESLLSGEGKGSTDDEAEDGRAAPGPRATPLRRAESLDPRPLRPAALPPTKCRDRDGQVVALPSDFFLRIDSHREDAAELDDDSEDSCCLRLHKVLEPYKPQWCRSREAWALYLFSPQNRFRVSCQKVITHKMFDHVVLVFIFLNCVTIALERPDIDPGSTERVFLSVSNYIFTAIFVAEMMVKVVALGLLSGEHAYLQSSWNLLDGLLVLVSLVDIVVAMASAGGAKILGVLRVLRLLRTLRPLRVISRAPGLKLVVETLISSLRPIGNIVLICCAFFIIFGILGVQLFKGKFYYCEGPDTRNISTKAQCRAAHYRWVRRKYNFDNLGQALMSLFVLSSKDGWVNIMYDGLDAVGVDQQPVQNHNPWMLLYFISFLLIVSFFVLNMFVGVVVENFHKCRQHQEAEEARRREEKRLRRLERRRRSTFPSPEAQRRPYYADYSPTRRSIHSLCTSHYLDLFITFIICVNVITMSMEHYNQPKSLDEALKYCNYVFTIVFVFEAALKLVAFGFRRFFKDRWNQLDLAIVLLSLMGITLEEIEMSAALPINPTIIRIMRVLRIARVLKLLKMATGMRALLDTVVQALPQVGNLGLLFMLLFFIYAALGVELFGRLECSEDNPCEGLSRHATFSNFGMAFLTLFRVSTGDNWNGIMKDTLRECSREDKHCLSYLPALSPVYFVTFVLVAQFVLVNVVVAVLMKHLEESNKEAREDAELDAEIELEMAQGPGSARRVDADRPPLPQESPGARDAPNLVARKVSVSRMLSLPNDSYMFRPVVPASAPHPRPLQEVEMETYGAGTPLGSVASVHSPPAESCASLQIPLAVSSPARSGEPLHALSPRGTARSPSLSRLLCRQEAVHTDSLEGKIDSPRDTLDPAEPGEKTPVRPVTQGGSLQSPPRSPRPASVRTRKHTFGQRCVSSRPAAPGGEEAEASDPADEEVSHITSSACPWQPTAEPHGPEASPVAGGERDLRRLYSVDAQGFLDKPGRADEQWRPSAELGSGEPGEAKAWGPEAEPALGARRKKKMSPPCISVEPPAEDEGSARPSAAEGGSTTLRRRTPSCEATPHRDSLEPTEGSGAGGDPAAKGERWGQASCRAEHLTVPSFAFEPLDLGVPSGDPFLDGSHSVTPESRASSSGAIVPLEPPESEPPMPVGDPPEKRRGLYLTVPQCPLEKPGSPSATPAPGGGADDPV

Sequence of UniProt Q9EQ60 (Q9EQ60 whole entry): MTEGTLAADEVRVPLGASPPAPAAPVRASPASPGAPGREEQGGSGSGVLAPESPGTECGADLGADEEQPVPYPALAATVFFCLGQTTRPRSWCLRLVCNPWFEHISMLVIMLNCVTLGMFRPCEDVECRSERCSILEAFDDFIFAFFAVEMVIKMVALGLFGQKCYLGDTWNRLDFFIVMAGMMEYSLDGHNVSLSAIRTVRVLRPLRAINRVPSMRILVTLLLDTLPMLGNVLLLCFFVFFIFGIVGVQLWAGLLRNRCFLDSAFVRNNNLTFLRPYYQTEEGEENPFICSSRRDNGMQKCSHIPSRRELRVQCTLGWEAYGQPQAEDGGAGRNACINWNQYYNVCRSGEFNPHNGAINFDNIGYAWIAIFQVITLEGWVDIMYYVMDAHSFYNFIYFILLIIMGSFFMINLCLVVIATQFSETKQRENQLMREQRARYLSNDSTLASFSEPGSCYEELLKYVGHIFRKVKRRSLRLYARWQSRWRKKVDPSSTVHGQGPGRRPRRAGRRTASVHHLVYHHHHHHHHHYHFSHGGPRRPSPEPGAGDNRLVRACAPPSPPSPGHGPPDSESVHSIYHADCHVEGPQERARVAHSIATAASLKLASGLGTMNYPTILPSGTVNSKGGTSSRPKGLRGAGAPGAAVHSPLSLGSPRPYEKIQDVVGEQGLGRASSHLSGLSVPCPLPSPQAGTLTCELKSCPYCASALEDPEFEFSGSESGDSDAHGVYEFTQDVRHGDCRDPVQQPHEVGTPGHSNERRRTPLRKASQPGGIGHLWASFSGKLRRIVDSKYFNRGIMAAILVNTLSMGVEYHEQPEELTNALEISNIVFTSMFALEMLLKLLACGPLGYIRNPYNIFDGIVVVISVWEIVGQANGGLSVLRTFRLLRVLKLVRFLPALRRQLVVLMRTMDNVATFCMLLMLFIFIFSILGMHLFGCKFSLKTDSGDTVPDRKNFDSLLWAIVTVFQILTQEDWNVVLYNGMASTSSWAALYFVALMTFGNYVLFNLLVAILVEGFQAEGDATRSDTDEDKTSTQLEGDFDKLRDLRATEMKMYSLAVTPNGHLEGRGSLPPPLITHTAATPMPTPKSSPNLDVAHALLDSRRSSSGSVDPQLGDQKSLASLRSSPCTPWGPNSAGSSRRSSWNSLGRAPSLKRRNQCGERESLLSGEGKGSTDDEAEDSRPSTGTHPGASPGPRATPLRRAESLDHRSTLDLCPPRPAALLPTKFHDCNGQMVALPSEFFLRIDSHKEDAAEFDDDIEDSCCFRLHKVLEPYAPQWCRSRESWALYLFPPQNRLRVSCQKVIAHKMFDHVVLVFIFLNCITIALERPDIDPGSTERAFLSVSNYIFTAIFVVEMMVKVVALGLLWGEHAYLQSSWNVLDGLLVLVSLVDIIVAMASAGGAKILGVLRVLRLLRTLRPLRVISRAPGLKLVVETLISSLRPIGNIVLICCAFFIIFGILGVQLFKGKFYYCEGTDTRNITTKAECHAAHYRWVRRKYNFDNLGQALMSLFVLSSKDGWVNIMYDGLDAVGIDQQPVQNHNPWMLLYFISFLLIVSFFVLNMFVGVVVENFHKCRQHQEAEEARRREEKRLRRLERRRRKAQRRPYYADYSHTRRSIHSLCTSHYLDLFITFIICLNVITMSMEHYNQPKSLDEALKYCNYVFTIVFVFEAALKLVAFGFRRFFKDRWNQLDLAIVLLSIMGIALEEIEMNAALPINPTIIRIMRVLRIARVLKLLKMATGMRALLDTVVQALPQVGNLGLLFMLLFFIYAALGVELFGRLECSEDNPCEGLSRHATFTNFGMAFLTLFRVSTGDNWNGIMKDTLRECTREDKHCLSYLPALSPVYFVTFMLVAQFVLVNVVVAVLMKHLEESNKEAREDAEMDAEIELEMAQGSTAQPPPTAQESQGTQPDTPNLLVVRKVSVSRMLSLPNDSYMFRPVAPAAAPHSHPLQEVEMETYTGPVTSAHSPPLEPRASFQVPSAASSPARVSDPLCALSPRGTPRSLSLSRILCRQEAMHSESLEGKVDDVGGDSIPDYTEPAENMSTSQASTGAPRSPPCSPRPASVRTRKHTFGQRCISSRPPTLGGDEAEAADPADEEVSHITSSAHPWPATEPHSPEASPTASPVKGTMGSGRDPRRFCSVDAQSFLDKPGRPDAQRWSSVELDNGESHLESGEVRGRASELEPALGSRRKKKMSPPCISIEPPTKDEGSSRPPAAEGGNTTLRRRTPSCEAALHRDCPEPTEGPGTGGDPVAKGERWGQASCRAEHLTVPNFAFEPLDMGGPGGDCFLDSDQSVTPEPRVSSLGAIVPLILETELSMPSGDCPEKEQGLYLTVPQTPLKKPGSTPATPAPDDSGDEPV

Question: Which inhibition of peak LVA ICa (pA/pF), dissociated rat DRG neurons after AAV6 injection (rat Cav3.2 (rat)) does the source give for {EGFP}-GLRSRAQASNSAVDGTAGPGSRRSSWNSLGRAPSLKRR (designed binder, not shown: large carriers) [GFP3.2iPA1] here?
Answer: The inhibition of peak LVA ICa (pA/pF), dissociated rat DRG neurons after AAV6 injection was 70%.

Question: What about the Activation curves (G/Gmax), V½ [1] of the same binder?
Answer: Its Activation curves (G/Gmax), V½ is -56.1 mV.

Question: And the Inactivation curves (I/Imax), V½ [1]?
Answer: The Inactivation curves (I/Imax), V½ was -69.8 mV.

Question: And the Peak T-type calcium currents, HEK3.2 cells (second institution) [1]?
Answer: Its Peak T-type calcium currents, HEK3.2 cells (second institution) is 20.2 pA/pF.

Question: What about the reduction of peak Cav3.2 current density (ICa3.2), whole-cell voltage-clamp, HEK3.2 cells [1] of the same binder?
Answer: The reduction of peak Cav3.2 current density (ICa3.2), whole-cell voltage-clamp, HEK3.2 cells was 70%.

Question: How did the inhibition of peak LVA ICa (pA/pF), dissociated rat DRG neurons after AAV6 injection (rat Cav3.2 (rat)) turn out when {EGFP}-GLRSRAQASNSAVDGTAGPGSRRREEKRLRRLERRRRKAQRRP (designed binder, not shown: large carriers) [GFP3.2iPA2] was run?
Answer: The inhibition of peak LVA ICa (pA/pF), dissociated rat DRG neurons after AAV6 injection was 60%.

Question: What about the Activation curves (G/Gmax), V½ [1] of the same binder?
Answer: Its Activation curves (G/Gmax), V½ is -54.6 mV.

Question: And the Inactivation curves (I/Imax), V½ [1]?
Answer: Its Inactivation curves (I/Imax), V½ is -68.8 mV.

Question: And the Peak T-type calcium currents, HEK3.2 cells (second institution) [1]?
Answer: The Peak T-type calcium currents, HEK3.2 cells (second institution) was 11.8 pA/pF.

Question: What about the reduction of peak Cav3.2 current density (ICa3.2), whole-cell voltage-clamp, HEK3.2 cells [1] of the same binder?
Answer: Its reduction of peak Cav3.2 current density (ICa3.2), whole-cell voltage-clamp, HEK3.2 cells is 60%.

Question: How did the Activation curves (G/Gmax), V½ [1] turn out when GLRSRAQASNSAVDGTAGPGSPAAPVRASPASPGAPGREEQ (designed binder, not shown: large carriers) [GFP3.2NP] was run?
Answer: Its Activation curves (G/Gmax), V½ is -54.1 mV.

Question: What about the Inactivation curves (I/Imax), V½ [1] of the same binder?
Answer: Its Inactivation curves (I/Imax), V½ is -64.9 mV.

Question: What about the Peak T-type calcium currents, HEK3.2 cells (second institution) [1] of the same binder?
Answer: Its Peak T-type calcium currents, HEK3.2 cells (second institution) is 41.1 pA/pF.

Question: Which reduction of peak Cav3.2 current density (ICa3.2), whole-cell voltage-clamp, HEK3.2 cells [1] does the source give for {EGFP}-GLRSRAQASNSAVDGTAGPGSRGRASELEPALGSRRKKKMSPP (designed binder, not shown: large carriers) [GFP3.2iPA4] here?
Answer: The reduction of peak Cav3.2 current density (ICa3.2), whole-cell voltage-clamp, HEK3.2 cells was 40%.

Question: With {EGFP}-GLRSRAQASNSAVDGTAGPGSKRRSLRLYARWQSRWRKK (designed binder, not shown: large carriers) [GFP3.2iPA3] as the binder, how does the enhancement of peak LVA ICa, dissociated rat DRG neurons after AAV6 injection (rat Cav3.2 (rat)) read?
Answer: Its enhancement of peak LVA ICa, dissociated rat DRG neurons after AAV6 injection is 30%.
